Data from the Immune Epitope Database (IEDB).
pKd: −log10 of the molar value.

Assays:
HLA-B*08:01 [1] = assay: IEDB peptide-MHC binding, purified MHC/competitive/radioactivity; filed as Kd, often an IC50 or EC50 that approximates it; ≥ and ≤ were set here for values at or beyond the usual limits of such assays
HLA-B*44:03 = assay: as above
HLA-B*44:02 [2] = assay: as above
HLA-B*40:01 [3] = assay: as above
HLA-A*32:01 = assay: as above
HLA-A*26:01 [4] = assay: IEDB peptide-MHC binding, purified MHC/competitive/fluorescence; filed as Kd, often an IC50 or EC50 that approximates it; ≥ and ≤ were set here for values at or beyond the usual limits of such assays
HLA-A*69:01 = assay: IEDB peptide-MHC binding, purified MHC/direct/fluorescence; filed as Kd, often an IC50 or EC50 that approximates it; ≥ and ≤ were set here for values at or beyond the usual limits of such assays; settings: source organism: Coxiella burnetii
HLA-B*15:01 = assay: as above; settings: source organism: Coxiella burnetii
HLA-A*11:01 = assay: as above; settings: source organism: Coxiella burnetii
HLA-B*07:02 [5] = assay: as above; settings: source organism: Coxiella burnetii
HLA-A*01:01 [6] = assay: as above; settings: source organism: Coxiella burnetii
HLA-B*44:02 [7] = assay: as above; settings: source organism: Coxiella burnetii
HLA-A*26:01 [8] = assay: as above; settings: source organism: Coxiella burnetii
HLA-B*27:05 = assay: as above; settings: source organism: Coxiella burnetii
HLA-B*08:01 [9] = assay: as above; settings: source organism: Coxiella burnetii
HLA-B*58:01 = assay: as above; settings: source organism: Coxiella burnetii
HLA-A*02:01 = assay: as above; settings: source organism: Coxiella burnetii
HLA-A*31:01 = assay: as above; settings: source organism: Coxiella burnetii
HLA-A*03:01 = assay: as above; settings: source organism: Coxiella burnetii
HLA-B*40:01 [10] = assay: as above; settings: source organism: Coxiella burnetii
HLA-A*01:01 [11] = assay: IEDB peptide-MHC binding, purified MHC/competitive/radioactivity; filed as Kd, often an IC50 or EC50 that approximates it; ≥ and ≤ were set here for values at or beyond the usual limits of such assays; settings: source organism: Mammarenavirus guanaritoense
HLA-A*30:01 = assay: as above; settings: source organism: Mammarenavirus guanaritoense
HLA-A*26:01 [12] = assay: as above; settings: source organism: Mammarenavirus guanaritoense
HLA-A*29:02 = assay: as above; settings: source organism: Mammarenavirus guanaritoense
HLA-A*30:02 = assay: as above; settings: source organism: Mammarenavirus guanaritoense
HLA-B*35:01 = assay: as above; settings: source organism: Dengue virus 4 Philippines/H241/1956
HLA-B*18:01 = assay: IEDB peptide-MHC binding, purified MHC/direct/fluorescence; filed as Kd, often an IC50 or EC50 that approximates it; ≥ and ≤ were set here for values at or beyond the usual limits of such assays; settings: source organism: Bacillus cereus H3081.97
HLA-A*02:06 = assay: IEDB peptide-MHC binding, purified MHC/competitive/radioactivity; filed as Kd, often an IC50 or EC50 that approximates it; ≥ and ≤ were set here for values at or beyond the usual limits of such assays
HLA-B*53:01 = assay: as above; settings: source organism: Dengue virus 2 Jamaica/1409/1983
HLA-B*07:02 [13] = assay: as above; settings: source organism: Dengue virus 2 Jamaica/1409/1983
HLA-B*51:01 = assay: as above; settings: source organism: Dengue virus 2 Jamaica/1409/1983
HLA-A*02:03 = assay: as above; settings: source organism: Vaccinia virus WR
HLA-A*02:02 = assay: as above; settings: source organism: Vaccinia virus WR
[14] = source organism: Dengue virus 2 Jamaica/1409/1983
[15] = source organism: Dengue virus 3 Martinique/1243/1999
[16] = source organism: Vaccinia virus WR
[17] = source organism: Escherichia coli
[18] = source organism: Dengue virus 2 Peru/IQT2913/1996
[19] = source organism: Dengue virus 1 Singapore/S275/1990

AAGRKSLTL
pKd (HLA-B*08:01 [1]; [14]): 6.68

AEISGSSPI
pKd (HLA-B*44:03; [14]): 7.59 | pKd (HLA-B*44:02 [2]; [14]): 7.84 | pKd (HLA-B*40:01 [3]; [14]): 9.18

AEMEEALKGL
pKd (HLA-B*44:03; [15]): 7.25 | pKd (HLA-B*44:02 [2]; [15]): 7.59 | pKd (HLA-B*40:01 [3]; [15]): 7.81

AETQNSSFI
pKd (HLA-B*44:03; [15]): 6.91 | pKd (HLA-B*44:02 [2]; [15]): 8.57 | pKd (HLA-B*40:01 [3]; [15]): 6.85

CINVRRCAL
pKd (HLA-B*08:01 [1]; [16]): 8.16

DEDCAHWKEA
pKd (HLA-A*32:01; [14]): ≤ 4.16

DTAKAFAYL
pKd (HLA-A*26:01 [4]; [17]): 6.73

DVLRQYVLM
pKd (HLA-A*26:01 [4]; [17]): 5.67

EAAGIAACL
pKd (HLA-A*26:01 [4]; source organism: Escherichia coli F11): 7.84

EEIAVQNWL
pKd (HLA-B*44:03; [14]): 7.97 | pKd (HLA-B*44:02 [2]; [14]): 8.16 | pKd (HLA-B*40:01 [3]; [14]): 7.83

EEMPLVWDL
pKd (HLA-A*69:01): ≤ 4.70 | pKd (HLA-B*15:01): ≤ 4.70 | pKd (HLA-A*11:01): ≤ 4.70 | pKd (HLA-B*07:02 [5]): ≤ 4.70 | pKd (HLA-A*01:01 [6]): ≤ 4.70 | pKd (HLA-B*44:02 [7]): 5.03 | pKd (HLA-A*26:01 [8]): ≤ 4.70 | pKd (HLA-B*27:05): ≤ 4.70 | pKd (HLA-B*08:01 [9]): ≤ 4.70 | pKd (HLA-B*58:01): ≤ 4.70 | pKd (HLA-A*02:01): ≤ 4.70 | pKd (HLA-A*31:01): ≤ 4.70 | pKd (HLA-A*03:01): ≤ 4.70 | pKd (HLA-B*40:01 [10]): 7.72

EEVQVLALE
pKd (HLA-B*44:03; [14]): 4.98

ELILDRGYY
pKd (HLA-A*26:01 [4]; source organism: Bacillus cereus G9241): 6.68

ESALNISGY
pKd (HLA-A*01:01 [11]): 7.43 | pKd (HLA-A*30:01): ≤ 4.17 | pKd (HLA-A*26:01 [12]): 6.93 | pKd (HLA-A*32:01; source organism: Mammarenavirus guanaritoense): ≤ 4.11 | pKd (HLA-A*29:02): ≤ 4.45 | pKd (HLA-A*30:02): 6.13

FEEVMRGKFG
pKd (HLA-B*40:01 [3]; [15]): 5.87

FIRSTMPLVM
pKd (HLA-B*35:01): 5.53

FPVQFFIVF
pKd (HLA-B*18:01): ≤ 4.70

FRRLTSREVL
pKd (HLA-B*08:01 [1]; source organism: Dengue virus 1 Brazil/97-11/1997): 6.98

FTLTVAWRTA
pKd (HLA-A*02:06; [15]): 6.42 | pKd (HLA-A*32:01; [15]): 5.03

GEGLHKLGY
pKd (HLA-B*44:03; [14]): 6.55 | pKd (HLA-B*44:02 [2]; [14]): 6.92

GESSPNPTV
pKd (HLA-B*44:02 [2]; [18]): 6.49 | pKd (HLA-B*40:01 [3]; [18]): 7.81

GEVDSFSLGL
pKd (HLA-B*44:03; [19]): 6.80 | pKd (HLA-B*40:01 [3]; [19]): 8.67

GFMRFFQLL
pKd (HLA-B*08:01 [1]; [16]): 8.62

GTFHTMWHVT
pKd (HLA-A*32:01; [14]): 4.87

HPGFTIMAAI
pKd (HLA-B*53:01): 7.18 | pKd (HLA-B*07:02 [13]): 7.53 | pKd (HLA-B*51:01): 5.24

IGVIITWIGM
pKd (HLA-A*32:01; [14]): ≤ 4.23

IIWKGIYTY
pKd (HLA-A*32:01; [16]): 8.48

ILRKIFYSV
pKd (HLA-B*08:01 [1]; [16]): 9.99

IVYGRSNAI
pKd (HLA-A*02:03): 7.80 | pKd (HLA-A*02:06; [16]): 7.52 | pKd (HLA-A*02:02): 7.83 | pKd (HLA-A*32:01; [16]): 8.50
